According to US9994881B2, “Functionalized carboxylic acids and alcohols by reverse fatty acid oxidation in engineered microbes” (William Marsh Rice University, priority 2011, dated 2018):
Marks after values point to notes of the source that are not given here.

Experiments:
[1] = biological target: T1, E. coli YciA (acyl-CoA thioesterase, NP_415769.1), wild type (Escherichia coli, UniProt P0A8Z0); experiment: Thioesterase kinetics (production of TNB at 412 nm); conditions: pH 7.5, 200 mM KCl, DTNB, 25° C.
T1 sequence (P0A8Z0 1-132): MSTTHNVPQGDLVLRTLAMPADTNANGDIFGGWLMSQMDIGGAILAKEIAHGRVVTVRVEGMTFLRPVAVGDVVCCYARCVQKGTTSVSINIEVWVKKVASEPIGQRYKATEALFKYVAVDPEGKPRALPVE
Protocol: Cells were lysed using Bacterial Protein Extraction Reagent (B-PER) (Thermo Scientific, Waltham, Mass.) as per the prescribed protocol in order to obtain the supernatant containing the active enzymes.
For kinetic characterization, an appropriate amount of enzyme was established by checking linear range near predicted KM values. Then, the rates were measured for a range of substrates in order to establish kcat and KM. In the cases of FadB for the crotonase reaction and FadA in the “forward” thiolase reaction coupled with HBD, substrate saturation could not be established, as such, the kcat/KM for the reaction was determined by dividing the linear slope of Velocity vs. [Substrate] by the amount of enzyme used in the assays. For reactions that could be saturated, Velocity vs. [Substrate] was fitted by the EnzKIN Matlab module (mathworks.com/matlabcentral/fileexchange/26653) to establish Vmax and KM.
Thioesterase activity was monitored by following the production of TNB at 412 nm (ε=4.3 mM^−1 cm^−1)^30. Reactions were carried out in the presence of 100 mM Tris pH 7.5, 200 mM KCl, 25 mM DTNB and 200 μM of the ‘-CoA’ substrate in a volume of 200 μL at 25° C.

[2] = forward thiolase assay (biosynthetic direction), coupled with caHBD; assay type: biochemical; conditions: substrate Acetyl-CoA; supernatant fraction; AtoB expressed from pCA24N, FadA from pUCBB-ntH6
Protocol: (§1) Cultures for enzymatic assays were grown overnight in 100 mL of LB media at 37° C. in 250 mL baffled flasks (Wheaton Industries, Inc., Millville, N.J.) in E. coli BL21 (DE3) cells induced with either 1 mM IPTG (pCA24N, pTrcHis2A) or 1 mM Arabinose (pUCBB-pBAD) at an OD600˜0.6, or expressed constitutively (pUCBB-ntH6). Reactions were monitored on either a Synergy HT plate reader (BioTek Instruments, Inc., Winooski, Vt.) at 25° C. (for reactions monitored at 300 nm or higher) or in a Biomate 5 Spectrophotometer (Thermo Scientific, Waltham, Mass.) for reactions at 263 nm. […]
(§2) For kinetic characterization, his-tagged proteins of AtoB, FadA, FadB, caHBD, egTER were purified from the B-PER supernatant fractions using Talon Metal Affinity Resin (Clontech Laboratories, Inc., Mountain View, Calif.) using gravity purification. […] Enzyme concentration was established by measuring the absorbance at […] and extinction coefficients predicted for each enzyme by the ProtParam program (web.expasy.org/protparam/).
(§3) For kinetic characterization, an appropriate amount of enzyme was established by checking linear range near predicted KM values. Then, the rates were measured for a range of substrates in order to establish kcat and KM. […]

[3] = thiolase activity in the reverse direction (loss of acetoacetyl-CoA at 303 nm); assay type: biochemical; conditions: substrate Acetoacetyl-CoA; supernatant fraction; AtoB expressed from pCA24N, FadA from pUCBB-ntH6
Protocol: as §1, §2, §3

Q: With CC(=O)SCCNC(=O)CCNC(=O)[C@H](O)C(C)(C)COP(=O)(O)OP(=O)(O)OC[C@H]1O[C@@H](n2cnc3c(N)ncnc32)[C@H](O)[C@@H]1OP(=O)(O)O [Acetyl-CoA] as the molecule, how does the kcat [1] read?
A: Its kcat is 6.9 ± 0.1 s⁻¹.

Q: Which “Specific Activity” value [2] does the source give for “AtoB: E. coli thiolase with higher specificity for short-chain acyl-CoA molecules” here?
A: The value was 0.919 ± 0.002^b μmol/mg/min.

Q: And the “Specific Activity” value [3]?
A: The value was 0.36 ± 0.05^b μmol/mg/min.
